Laboratory results taken from US11312984B2, “High-purity steviol glycosides” (PURECIRCLE SDN BHD, priority 2013, dated 2022).

Test: Activity of UGT76G1_Sc for the conversion of Rebaudioside D to Rebaudioside M
Assay type: biochemical
Conditions: based on initial concentration of Rebaudioside D; 21 h.
Method: UGT76G1_Sc was prepared according to EXAMPLE 34. Activity tests were performed at 2 mL scale with 200 μL of lysate for the transformation of Rebaudioside D using 0.5 mM of substrate, 2.5 mM of UDP-Glucose and 3 mM MgCl2 in 50 mM Sodium Phosphate buffer at pH 7.2. Samples were taken and analyzed by HPLC according to the method of EXAMPLE 20.

B1: UGT76G1_Sc (protein, UniProt Q6VAB4 1-458, looked up)
UDP-glycosyltransferase 76G1: MENKTETTVRRRRRIILFPVPFQGHINPILQLANVLYSKGFSITIFHTNFNKPKTSNYPHFTFRFILDNDPQDERISNLPTHGPLAGMRIPIINEHGADELRRELELLMLASEEDEEVSCLITDALWYFAQSVADSLNLRRLVLMTSSLFNFHAHVSLPQFDELGYLDPDDKTRLEEQASGFPMLKVKDIKSAYSNWQILKEILGKMIKQTKASSGVIWNSFKELEESELETVIREIPAPSFLIPLPKHLTASSSSLLDHDRTVFQWLDQQPPSSVLYVSFGSTSEVDEKDFLEIARGLVDSKQSFLWVVRPGFVKGSTWVEPLPDGFLGERGRIVKWVPQQEVLAHGAIGAFWTHSGWNSTLESVCEGVPMIFSDFGLDQPLNARYMSDVLKVGVYLENGWERGEIANAIRRVMVDEEGEYIRQNARVLKQKADVSLMKGGSSYESLESLVSYISSL
modifications: expressed in Saccharomyces cerevisiae
Rebaudioside M selectivity (Retention Time ~6.7 min): 100%
